“And” between values parts separate entries of the source, which are not always exact repeats. Equal entries are not always repeated.
Experiments:
[1] = biological target: mouse NGF (nerve growth factor, from mouse submaxillary salivary glands) (mouse) (UniProt P01139)
125I-labeled NGF = 125I-labeled NGF (UniProt P01139 122-241, 125I label); experiment: radioligand binding; competition: 15N-labeled TrkAIg2-NMR at varied concentration sequesters 125I-labeled NGF from full-length human TrkA on HEK cells; settings: both partners purified
[2] = biological target: T1, mouse NGF (nerve growth factor, from mouse submaxillary salivary glands) (mouse, UniProt P01139 122-241); experiment: cell-based or functional assay
[3] = biological target: T1, mouse NGF (nerve growth factor, from …); experiment: SEC; Superdex 75 gel filtration; TrkAIg2-NMR and mouse NGF applied separately and as a 1:1 ratio complex (1 mg/mL of each); 50 mM phosphate buffer, 150 μM NaCl, pH 7.4; sizes from a calibration curve; settings: both partners purified

T1 sequence (P01139 122-241): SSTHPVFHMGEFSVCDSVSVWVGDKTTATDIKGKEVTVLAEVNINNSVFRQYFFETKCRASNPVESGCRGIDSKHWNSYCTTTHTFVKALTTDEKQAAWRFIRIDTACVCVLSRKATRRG
125I-labeled NGF, sequence (P01139 122-241): as above
mouse NGF (nerve growth factor, from mouse submaxillary salivary glands) (mouse), sequence (P01139 122-241): as above

“"wild-type" TrkAIg2 (TrkAIg2-WT) (domain or fragment)” was tested, and the NGF-dependent PC12 cell survival/proliferation (MTS assay, mouse NGF 5 ng/mL), serial dilutions of TrkAIg2-WT; EC50 of the reduction [1] was 0.48 µM.

B1: TrkAIg2-NMR (domain or fragment, human)
chain: MDDDDDVSFCASVQLHTAVEMHHWCIPFSVDGQPAPSLRWLFNGSVLNETSFIFTEFLEPAANETVRHGCLRLNQPTHVNNGNYTLLAANPCGQASASIMAAFMDNPF
B1 was tested, and the IC50 (125I-labeled NGF) was ~5 µM and ~2 µM, the “NGF-dependent PC12 cell survival/proliferation (MTS assay, mouse NGF 5 ng/mL), serial dilutions of TrkAIg2-NMR; EC50 of the reduction” value [2] was 2.1 µM and the “stoichiometry N” value [3] was 2 TrkAIg2-NMR monomers per NGF dimer.
